Target: His-tagged dimeric ϕO11 Dut (S. aureus phage ϕO11)
Assay: crystal structure; ϕO11 Dut (10 mg/ml) with 0.5 mM dUPNPP and 5 mM MgCl2; sitting drop at 21°C; 0.2 M magnesium chloride, 0.1 M Tris-HCl pH 8.5, 20% PEG 8000; 2.1 Å

His-tagged dimeric ϕO11 Dut (enzyme)
stoichiometry N: 2
